Test results as given in the supplement of paper PMC10065799, “High-throughput profiling of sequence recognition by tyrosine kinases and SH2 domains using bacterial peptide display” (eLife, 2023).

What was measured:
c-Abl (mouse) = assay: phosphorylation enrichment, bacterial display (enrichment ratio); higher = better substrate or ligand; peptides without Tyr show the background
Hck = Hck (UniProt P08631); assay: as above
EPHB2 = EPHB2 (UniProt P29323); assay: as above
AncSZ = assay: as above
Fyn = Fyn (UniProt P06241); assay: as above
Fyn, sequence (P06241 whole entry, looked up): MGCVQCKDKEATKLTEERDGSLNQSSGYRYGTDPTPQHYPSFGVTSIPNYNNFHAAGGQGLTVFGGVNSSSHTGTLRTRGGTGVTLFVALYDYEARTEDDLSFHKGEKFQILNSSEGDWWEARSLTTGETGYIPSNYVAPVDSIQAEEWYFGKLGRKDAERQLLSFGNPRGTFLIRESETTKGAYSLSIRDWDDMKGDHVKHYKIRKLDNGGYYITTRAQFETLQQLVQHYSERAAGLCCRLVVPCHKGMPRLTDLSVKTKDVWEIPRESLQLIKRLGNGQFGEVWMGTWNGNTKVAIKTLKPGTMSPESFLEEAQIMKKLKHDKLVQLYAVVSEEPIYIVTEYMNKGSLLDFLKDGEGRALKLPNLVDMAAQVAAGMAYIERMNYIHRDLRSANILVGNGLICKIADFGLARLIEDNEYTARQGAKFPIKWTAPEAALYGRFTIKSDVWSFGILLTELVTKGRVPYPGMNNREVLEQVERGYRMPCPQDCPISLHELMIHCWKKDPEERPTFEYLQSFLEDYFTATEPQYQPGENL

c-Src = assay: as above
FGFR1 = FGFR1 (UniProt P11362); assay: as above
FGFR1, sequence (P11362 whole entry, looked up): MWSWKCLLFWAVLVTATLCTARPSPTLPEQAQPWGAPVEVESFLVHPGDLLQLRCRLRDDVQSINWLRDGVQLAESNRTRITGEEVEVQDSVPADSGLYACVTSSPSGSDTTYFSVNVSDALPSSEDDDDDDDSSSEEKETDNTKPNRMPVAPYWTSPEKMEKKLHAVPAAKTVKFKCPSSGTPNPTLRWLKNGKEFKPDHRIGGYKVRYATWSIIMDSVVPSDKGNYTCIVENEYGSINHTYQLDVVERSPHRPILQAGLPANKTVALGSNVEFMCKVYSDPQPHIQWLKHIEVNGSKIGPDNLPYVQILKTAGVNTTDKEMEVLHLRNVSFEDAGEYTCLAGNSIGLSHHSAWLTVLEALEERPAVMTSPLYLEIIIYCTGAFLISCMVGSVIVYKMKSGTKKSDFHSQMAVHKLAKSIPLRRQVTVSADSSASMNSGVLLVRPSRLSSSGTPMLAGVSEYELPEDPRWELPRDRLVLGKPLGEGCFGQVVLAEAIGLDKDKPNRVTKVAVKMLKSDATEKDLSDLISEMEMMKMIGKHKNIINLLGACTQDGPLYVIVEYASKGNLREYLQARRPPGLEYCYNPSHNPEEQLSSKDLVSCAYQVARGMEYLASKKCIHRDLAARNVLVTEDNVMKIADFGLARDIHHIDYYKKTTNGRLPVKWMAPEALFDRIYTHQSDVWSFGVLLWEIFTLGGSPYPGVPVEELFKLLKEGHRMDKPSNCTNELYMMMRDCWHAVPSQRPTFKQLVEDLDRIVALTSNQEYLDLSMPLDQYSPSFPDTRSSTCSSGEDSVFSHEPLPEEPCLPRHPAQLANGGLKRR

Jak2 = Jak2 (UniProt O60674); assay: as above
EPHB1 = EPHB1 (UniProt P54762); assay: as above
EPHB1, sequence (P54762 whole entry, looked up): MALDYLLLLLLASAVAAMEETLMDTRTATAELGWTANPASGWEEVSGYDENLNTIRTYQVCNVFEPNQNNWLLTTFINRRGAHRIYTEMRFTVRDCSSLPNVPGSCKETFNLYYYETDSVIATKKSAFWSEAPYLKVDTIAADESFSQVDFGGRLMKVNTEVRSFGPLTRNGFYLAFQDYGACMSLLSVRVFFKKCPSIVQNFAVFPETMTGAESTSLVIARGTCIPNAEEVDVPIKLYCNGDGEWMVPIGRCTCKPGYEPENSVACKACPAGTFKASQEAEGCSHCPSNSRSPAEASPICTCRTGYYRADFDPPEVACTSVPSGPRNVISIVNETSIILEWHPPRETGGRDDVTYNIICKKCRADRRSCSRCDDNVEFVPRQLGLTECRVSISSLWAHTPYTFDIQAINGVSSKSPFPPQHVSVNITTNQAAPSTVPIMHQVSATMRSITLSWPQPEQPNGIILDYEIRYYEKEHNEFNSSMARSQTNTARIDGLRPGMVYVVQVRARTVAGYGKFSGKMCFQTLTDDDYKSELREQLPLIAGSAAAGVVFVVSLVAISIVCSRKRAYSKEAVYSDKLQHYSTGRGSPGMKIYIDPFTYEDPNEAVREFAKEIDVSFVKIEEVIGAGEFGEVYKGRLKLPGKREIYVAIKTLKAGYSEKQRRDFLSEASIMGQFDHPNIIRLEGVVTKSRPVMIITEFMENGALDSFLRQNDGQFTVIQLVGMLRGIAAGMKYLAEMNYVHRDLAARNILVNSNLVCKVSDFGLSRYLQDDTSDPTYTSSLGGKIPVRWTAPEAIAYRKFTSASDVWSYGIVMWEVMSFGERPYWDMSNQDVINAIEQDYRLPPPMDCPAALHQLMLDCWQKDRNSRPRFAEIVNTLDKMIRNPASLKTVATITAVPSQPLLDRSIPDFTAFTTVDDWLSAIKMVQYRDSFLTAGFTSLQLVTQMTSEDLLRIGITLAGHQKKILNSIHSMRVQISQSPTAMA

Fes = Fes (UniProt P07332); assay: as above
Fes, sequence (P07332 whole entry, looked up): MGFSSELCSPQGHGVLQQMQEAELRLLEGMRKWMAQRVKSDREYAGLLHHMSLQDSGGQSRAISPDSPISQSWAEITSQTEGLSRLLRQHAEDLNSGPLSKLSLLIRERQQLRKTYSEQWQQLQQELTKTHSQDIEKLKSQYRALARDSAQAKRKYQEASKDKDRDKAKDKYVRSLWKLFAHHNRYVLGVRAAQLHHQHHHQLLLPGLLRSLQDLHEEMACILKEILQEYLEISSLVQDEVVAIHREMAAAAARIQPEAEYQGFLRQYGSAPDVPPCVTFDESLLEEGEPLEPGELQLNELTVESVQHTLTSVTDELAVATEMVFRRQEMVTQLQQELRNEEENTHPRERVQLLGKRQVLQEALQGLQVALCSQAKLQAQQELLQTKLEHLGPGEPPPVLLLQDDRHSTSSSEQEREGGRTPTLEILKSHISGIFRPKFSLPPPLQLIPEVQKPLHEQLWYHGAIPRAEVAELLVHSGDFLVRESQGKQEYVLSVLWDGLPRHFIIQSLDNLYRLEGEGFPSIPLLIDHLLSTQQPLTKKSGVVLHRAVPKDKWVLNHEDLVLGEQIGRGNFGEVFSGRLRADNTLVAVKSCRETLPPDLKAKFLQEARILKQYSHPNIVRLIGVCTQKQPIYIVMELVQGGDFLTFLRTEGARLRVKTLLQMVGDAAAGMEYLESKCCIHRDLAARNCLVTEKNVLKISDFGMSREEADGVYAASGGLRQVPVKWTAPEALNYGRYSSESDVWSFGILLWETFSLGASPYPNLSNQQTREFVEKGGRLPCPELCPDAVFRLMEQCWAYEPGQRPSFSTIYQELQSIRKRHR

MERTK = MERTK (UniProt Q12866); assay: as above
MERTK, sequence (Q12866 whole entry, looked up): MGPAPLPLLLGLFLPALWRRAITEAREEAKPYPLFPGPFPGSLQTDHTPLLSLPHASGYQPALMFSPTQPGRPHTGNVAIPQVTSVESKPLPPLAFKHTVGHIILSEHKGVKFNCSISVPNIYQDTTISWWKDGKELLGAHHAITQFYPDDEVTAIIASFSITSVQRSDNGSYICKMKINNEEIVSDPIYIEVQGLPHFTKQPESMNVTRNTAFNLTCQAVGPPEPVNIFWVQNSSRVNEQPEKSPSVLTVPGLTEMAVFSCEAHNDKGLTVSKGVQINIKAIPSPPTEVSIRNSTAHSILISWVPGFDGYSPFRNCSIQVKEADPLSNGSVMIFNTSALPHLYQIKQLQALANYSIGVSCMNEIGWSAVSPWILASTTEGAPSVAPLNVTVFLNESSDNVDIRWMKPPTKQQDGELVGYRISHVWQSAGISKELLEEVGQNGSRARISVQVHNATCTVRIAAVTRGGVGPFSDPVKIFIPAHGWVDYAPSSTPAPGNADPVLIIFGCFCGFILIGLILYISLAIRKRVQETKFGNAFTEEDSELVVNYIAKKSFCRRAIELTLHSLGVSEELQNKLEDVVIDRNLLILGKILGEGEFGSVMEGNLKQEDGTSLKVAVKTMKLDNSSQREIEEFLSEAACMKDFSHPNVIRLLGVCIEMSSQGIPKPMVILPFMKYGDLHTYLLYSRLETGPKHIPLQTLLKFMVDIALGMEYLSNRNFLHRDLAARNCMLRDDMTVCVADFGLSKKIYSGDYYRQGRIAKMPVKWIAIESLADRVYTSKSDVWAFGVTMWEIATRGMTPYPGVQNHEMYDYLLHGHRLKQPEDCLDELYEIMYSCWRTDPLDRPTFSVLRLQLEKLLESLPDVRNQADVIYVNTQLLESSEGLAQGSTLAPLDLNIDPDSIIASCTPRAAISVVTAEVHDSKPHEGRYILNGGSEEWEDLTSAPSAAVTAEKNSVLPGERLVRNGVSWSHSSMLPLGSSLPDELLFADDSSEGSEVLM

Fer (mouse) = assay: as above
FGFR3 = FGFR3 (UniProt P22607); assay: as above
SHP2-C SH2 = assay: SH2 binding enrichment of the phosphorylated peptide, bacterial display (enrichment ratio); higher = better substrate or ligand; peptides without Tyr show the background
c-Src SH2 = assay: as above
Grb2 SH2 = Grb2 SH2 (UniProt P62993); assay: as above
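Wherever SH2 binding enrichment of the phosphorylated peptide, bacterial display is given: peptide library displayed on the E. coli surface as eCPX fusions, selected cells deep-sequenced, score is each peptide's frequency after selection divided by its frequency in the input.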
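Wherever phosphorylation enrichment, bacterial display is given: 11-residue human phosphosite peptides and single-mutation variants displayed on the E. coli surface, counted by deep sequencing, each peptide's frequency after selection divided by its frequency in the unselected input library; frequency after pTyr selection over input frequency; kinase dosed for 20-30% of maximal phosphorylation in three min.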

Hck, sequence (P08631 whole entry, looked up): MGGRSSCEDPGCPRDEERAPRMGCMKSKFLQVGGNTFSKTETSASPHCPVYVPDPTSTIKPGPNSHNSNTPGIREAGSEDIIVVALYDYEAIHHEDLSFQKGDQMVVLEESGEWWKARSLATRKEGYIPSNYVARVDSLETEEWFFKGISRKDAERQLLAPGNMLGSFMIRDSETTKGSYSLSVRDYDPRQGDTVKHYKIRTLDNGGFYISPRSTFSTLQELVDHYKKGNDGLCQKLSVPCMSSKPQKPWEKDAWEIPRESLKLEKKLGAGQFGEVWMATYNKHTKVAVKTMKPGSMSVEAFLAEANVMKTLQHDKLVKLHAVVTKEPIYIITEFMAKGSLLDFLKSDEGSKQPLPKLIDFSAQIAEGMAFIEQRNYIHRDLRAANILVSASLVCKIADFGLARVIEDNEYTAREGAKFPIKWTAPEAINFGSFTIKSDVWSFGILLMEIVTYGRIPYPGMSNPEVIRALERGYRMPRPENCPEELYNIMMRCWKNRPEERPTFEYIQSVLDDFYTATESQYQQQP

| SH2 binding enrichment (SHP2-C SH2) | SH2 binding enrichment (c-Src SH2) | SH2 binding enrichment (Grb2 SH2) | Sequence | phosphorylation enrichment (c-Abl (mouse)) | phosphorylation enrichment (Hck) | phosphorylation enrichment (EPHB2) | phosphorylation enrichment (AncSZ) | phosphorylation enrichment (Fyn) | phosphorylation enrichment (c-Src) | phosphorylation enrichment (FGFR1) | phosphorylation enrichment (Jak2) | phosphorylation enrichment (EPHB1) | phosphorylation enrichment (Fes) | phosphorylation enrichment (MERTK) | phosphorylation enrichment (Fer (mouse)) | phosphorylation enrichment (FGFR3) |
| --- | --- | --- | --- | --- | --- | --- | --- | --- | --- | --- | --- | --- | --- | --- | --- | --- |
| 0.9 | 0.587 | 0.858 | YAKSVYWDNTL [NUP107_Y296_E298D] | 0.557 | 0.678 | 0.515 | 0.848 | 0.599 | 0.736 | 0.515 | 0.69 | 0.621 | 0.839 | 0.435 | 0.871 | 0.576 |
| 0.811 | 2.85 | 1.03 | YDCGMYSHLQG [LGR4_Y848] | 2.38 | 5.59 | 1.29 | 1.47 | 2.36 | 3.69 | 1.04 | 0.944 | 1.5 | 1.21 | 7.03 | 2.87 | 1 |
| 0.604 | 0.452 | 0.692 | YDGKDYIALNE [HLA-A_Y147] | 0.909 | 0.583 | 0.792 | 1.41 | 0.532 | 0.48 | 0.843 | 1.18 | 1.06 | 1.27 | 0.457 | 0.551 | 0.953 |
| 0.628 | 2.16 | 0.906 | YEEDSYVTRSQ [RET_Y905_K907T] | 0.69 | 0.543 | 0.565 | 1.21 | 0.499 | 0.496 | 0.604 | 1.04 | 0.59 | 1.12 | 0.468 | 0.548 | 0.964 |
| 0.545 | 0.275 | 0.712 | YFCRWYRNQKS [EREG_Y144_R147Q] | 0.444 | 0.372 | 0.385 | 0.565 | 0.447 | 0.477 | 0.473 | 0.371 | 0.481 | 0.48 | 0.523 | 0.454 | 0.548 |
| 3.19 | 2.83 | 1.58 | YFVVEYRNQKP [MUC17_Y4332_D4334N] | 0.722 | 0.605 | 0.842 | 1.72 | 0.842 | 0.836 | 11.1 | 2.32 | 0.931 | 1.36 | 4.22 | 0.738 | 9.02 |
| 0.819 | 0.817 | 0.769 | YGEYRYRSVIK [CFTR_Y517_D513G] | 0.745 | 3.67 | 0.462 | 0.714 | 7.2 | 4.36 | 0.454 | 0.599 | 0.458 | 0.826 | 0.463 | 0.49 | 0.644 |
| 0.642 | 0.569 | 0.829 | YGGLRCGYGVL [KRTAP20-2_Y13_Y13C] | 0.589 | 1.5 | 0.543 | 0.857 | 1 | 1.05 | 0.826 | 0.794 | 0.623 | 1.01 | 0.369 | 0.473 | 0.632 |
| 1.68 | 1.23 | 2.31 | YIIFIYAMKKK [SLCO1B1_Y645_L643F] | 0.465 | 0.473 | 0.239 | 0.602 | 0.343 | 0.287 | 0.655 | 0.545 | 0.273 | 0.536 | 0.849 | 0.433 | 0.507 |
| 0.853 | 0.751 | 0.802 | YKEQGYHRLPS [RIN1_Y681_P686S] | 0.455 | 0.279 | 0.366 | 0.531 | 0.366 | 0.439 | 0.485 | 0.763 | 0.245 | 0.508 | 0.413 | 0.363 | 0.485 |
| 1.42 | 1.36 | 2.41 | YKWAVYCIIGR [NUP93_Y391_R388W] | 0.981 | 1.29 | 1.83 | 1.23 | 1.04 | 1.18 | 0.527 | 1.08 | 3.37 | 1.48 | 0.953 | 0.646 | 0.751 |
| 1.83 | 1.2 | 0.959 | YMRGMYFRMTD [PLA2G6_Y541_K545T] | 0.771 | 0.578 | 0.566 | 1.21 | 0.434 | 0.427 | 0.592 | 1.41 | 0.63 | 1.16 | 0.773 | 0.481 | 0.908 |
| 1.43 | 1.2 | 1.6 | YPKAHYHWLVL [APTX_Y214_R213H] | 0.846 | 0.501 | 0.482 | 0.823 | 0.368 | 0.487 | 2.54 | 1.16 | 0.505 | 1.15 | 0.61 | 0.571 | 1.94 |
| 0.596 | 0.443 | 0.675 | YPPTHYIRRVP [SLC4A11_Y820] | 0.601 | 0.369 | 0.492 | 0.754 | 0.444 | 0.449 | 0.448 | 0.76 | 0.407 | 0.678 | 0.469 | 0.346 | 0.43 |
| 0.557 | 0.716 | 0.846 | YQGGTYSKAST [FGG_Y380] | 0.388 | 0.424 | 0.419 | 0.867 | 0.449 | 0.424 | 0.423 | 0.373 | 0.33 | 0.526 | 0.43 | 0.387 | 0.43 |
| 0.697 | 0.76 | 0.862 | YQLENYCNGGG [INS_Y108] | 0.473 | 0.568 | 0.572 | 0.768 | 0.57 | 0.455 | 0.536 | 0.461 | 0.686 | 0.812 | 0.426 | 0.55 | 0.477 |
| 0.585 | 1.11 | 5.48 | YQNGMYGLHQD [SGSH_Y89_H84Y] | 0.748 | 1 | 0.687 | 0.874 | 0.751 | 0.957 | 0.605 | 0.712 | 0.487 | 0.808 | 0.566 | 0.55 | 0.631 |
| 0.896 | 0.452 | 0.846 | YRQNGYIPGSN [PCDHGA1_Y895_V894G] | 0.47 | 0.405 | 0.404 | 0.485 | 0.384 | 0.422 | 0.399 | 0.467 | 0.381 | 0.547 | 0.405 | 0.423 | 0.439 |
| 0.612 | 0.487 | 0.813 | YSKDIYKRVTG [PANK2_Y405_N404I] | 0.435 | 0.487 | 0.419 | 0.5 | 0.415 | 0.394 | 0.409 | 0.447 | 0.38 | 0.51 | 0.401 | 0.551 | 0.342 |
| 0.864 | 0.701 | 0.8 | YSMGCYEFSLG [HMGCL_Y198_I200F] | 0.864 | 1.25 | 1.37 | 2.47 | 2.12 | 2.37 | 1.23 | 1.06 | 1.52 | 1.39 | 3.64 | 4.95 | 1.37 |
| 0.576 | 0.834 | 0.726 | YYSSEYHCVGG [CTSC_Y345_Y347C] | 6.69 | 2.58 | 8.59 | 3.84 | 2.49 | 3.66 | 11.5 | 3.05 | 7.69 | 1.04 | 8.36 | 1.26 | 9.28 |
